B1: unnamed (parent)
chain 1: MCDRNGGRRLRQWLIEQIDSSMYPGLIWENEEKSMFRIPWKHAGKQDYNQEVDASIFKAWAVFKGKFKEGDKAEPATWKTRLRCALNKSPDFEEVTDRSQLDISEPYKVYRIVPEEEQKCKLGVATAGCVNEVTEMECGRSEIDELIKEPSVDDYMGMIKRSPSPPEACRSQLLPDWWAQQPSTGVPLVTGYTTYDAHHSAFSQMVISFYYGGKLVGQATTTCPEGCRLSLSQPGLPGTKLYGPEGLELVRFPPADAIPSERQRQVTRKLFGHLERGVLLHSSRQGVFVKRLCQGRVFCSGNAVVCKGRPNKLERDEVVQVFDTSQFFRELQQFYNSQGRLPDGRVVLCFGEEFPDMAPLRSKLILVQIEQLYVRQLAEEAGKSCGAGSVMQAPEEPPPDQVFRMFPDICASHQRSFFRENQQITV
chain 2: LILDSGLDTQHILCFVMAARQRLQDIRRGP
B2: unnamed (parent)
chain 1: MNLEGGGRGGEFGMSAVSCGNGKLRQWLIDQIDSGKYPGLVWENEEKSIFRIPWKHAGKQDYNREEDAALFKAWALFKGKFREGIDKPDPPTWKTRLRCALNKSNDFEELVERSQLDISDPYKVYRIVPEGAKKGAKQLTLEDPQMSMSHPYTMTTPYPSLPAQQVHNYMMPPLDRSWRDYVPDQPHPEIPYQCPMTFGPRGHHWQGPACENGCQVTGTFYACAPPESQAPGVPTEPSIRSAEALAFSDCRLHICLYYREILVKELTTSSPEGCRISHGHTYDASNLDQVLFPYPEDNGQRKNIEKLLSHLERGVVLWMAPDGLYAKRLCQSRIYWDGPLALCNDRPNKLERDQTCKLFDTQQFLSELQAFAHHGRSLPRFQVTLCFGEEFPDPQRQRKLITAHVEPLLARQLYYFAQQNSGHFLRGYDLPEHISNPEDYHRSIRHSSIQE
chain 2: B1 chain 2

The variants in the first test derive from B1. Put plainly: GST pull-down of S35-radiolabeled in vitro translated protein. The note with it: with partner chain of the complex shown; 5% of IVT input (input lane = 5 RBU); GST control lane = 0.4 RBU; parent: 3.9.
On to chain 2 F15A, for which the response worked out at 0.6 RBU.
Consider chain 2 R20G R22G, for which the response is 0.7 RBU.
Take chain 2 C14A: the response was found to be 3.2 RBU.

The variants in a further test derive from B2. Described as above. The note with it: with partner chain of the complex shown; 5% of IVT input (input lane = 5 RBU); GST control lane = 0.5 RBU; parent: 14.1.
For chain 2 R20G R22G, the response is 4.9 RBU.
Take chain 2 F15A: the response was determined as 0.5 RBU.
Consider chain 2 C14A, for which the response was 14 RBU.

(Values after PMC3642079.)
